We go through 37 sequences from the supplement of paper PMC10567573.

This data set is described as follows: protein stability index of a GFP-peptide fusion (GPS, HEK-293T) (PSI 1-6); higher = more stable. To be noted: c terminus: a fixed tail appended.

± gives the standard deviation.
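Further: 24-mer peptide tiles fused after GFP, lentivirally expressed, FACS-sorted into six equal bins by GFP/DsRed ratio, decoded by Illumina sequencing, PSI is the read-weighted mean bin number.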

Turning to CQVGGIEALVRTVLRAGDREDITE [CTNNB1], the protein stability index amounted to 3.28 ± 0.46 (treatment: DMSO) and 3.21 ± 0.46 (treatment: MLN4924 1 uM, 8 h).

Take CREPSPKMDFKTNILLKNLVTIAR [TRIM43]: the protein stability index is 2.8 ± 0.59 (treatment: DMSO) and 2.35 ± 0.49 (treatment: MLN4924 1 uM, 8 h).

Regarding CSIGFAVRYLNAYTGIVLLRCRKE [POP5], the protein stability index is, setting by setting: (treatment: DMSO) 3.13 ± 0.43; (treatment: MLN4924 1 uM, 8 h) 2.99 ± 0.57.

Take CSNLVKTRRRAVGWWKRLFTLKEE [ARL6IP1]: the protein stability index runs as follows: (treatment: DMSO) 2.42 ± 0.28; (treatment: MLN4924 1 uM, 8 h) 2.6 ± 0.21.

CSSKRSSYPVMGFEFQVRVCDSCY [WDFY1]: the protein stability index (treatment: DMSO) is 2.66 ± 0.9 and the protein stability index (treatment: MLN4924 1 uM, 8 h) was found to be 2.32 ± 0.23.

CSSSNLAGNDDSFGSLPSPKELSS [DLC1] gave a protein stability index (treatment: DMSO) of 4.37 ± 0.15 and a protein stability index (treatment: MLN4924 1 uM, 8 h) of 4.37 ± 0.27.

CTPGGTTIYGLHALEQGGLRAATM [PYCR3] showed a protein stability index (treatment: DMSO) of 2.36 ± 0.73 and a protein stability index (treatment: MLN4924 1 uM, 8 h) of 2.25 ± 0.72.

Consider CTQVTQDGDIPNIPAEENASTSTP [FAM189A2], for which the protein stability index is, setting by setting: (treatment: DMSO) 5.65 ± 0.2; (treatment: MLN4924 1 uM, 8 h) 5.5 ± 0.33.

Turning to CVLYACFILGRLCVPVFANMSREP [SOAT2], the protein stability index is, setting by setting: (treatment: DMSO) 3 ± 0.36; (treatment: MLN4924 1 uM, 8 h) 3.31 ± 0.21.

Regarding CVTPNGRPISGTAVAHKTPRCPGS [SMOC2], the protein stability index is, setting by setting: (treatment: DMSO) 2.98 ± 0.67; (treatment: MLN4924 1 uM, 8 h) 3.89 ± 0.34.

For the sequence DAAIHGFRETEKSRWSEASRAILQ [ALKBH7], the protein stability index worked out at 3.8 ± 0.51 (treatment: DMSO) and 3.83 ± 0.66 (treatment: MLN4924 1 uM, 8 h).

With DCSDILRLIKELAKYEYMEEQVIL [SAT1], the protein stability index turned out to be 1.95 ± 0.51 (treatment: DMSO) and 2.23 ± 0.1 (treatment: MLN4924 1 uM, 8 h).

With DDMPIGRNVLELNDVRQSANYTCV [PTPRD], the protein stability index came out at 3.72 ± 0.28 (treatment: DMSO) and 3.77 ± 0.44 (treatment: MLN4924 1 uM, 8 h).

As for DDNSCEDLEEERREEEEKTPPETK [PCMTD2], the protein stability index by setting is: (treatment: DMSO) 5.73 ± 0.34; (treatment: MLN4924 1 uM, 8 h) 5.54 ± 0.25.

For the sequence DELQQSFQKSHNSLQRWEHLKKVA [PRIM1], the protein stability index (treatment: DMSO) is 3.76 ± 0.38 and the protein stability index (treatment: MLN4924 1 uM, 8 h) came to 3.88 ± 0.45.

Under “treatment: MLN4924 1 uM, 8 h”, DEPYEKVVDRIQSSGKNVTLLVCG [PDZK1] yielded a protein stability index of 3.5 ± 0.36.

For the sequence DEYQYSFWDLFRSKDNMRTRIMIG [SLC2A12], the protein stability index (treatment: DMSO) worked out at 1.85 ± 0.38 and the protein stability index (treatment: MLN4924 1 uM, 8 h) is 2.14 ± 0.38.

With DFEHRPKAPVVECSITGDSSRVIA [WDR88], the protein stability index is 4.36 ± 0.26 (treatment: DMSO) and 4.49 ± 0.17 (treatment: MLN4924 1 uM, 8 h).

Take DGEILFSLLQKVSPVAHKHLSRQK [TBC1D10A]: the protein stability index by setting is: (treatment: DMSO) 2.36 ± 0.11; (treatment: MLN4924 1 uM, 8 h) 2.48 ± 0.37.

Consider DGGSSLASGSTQRQPPPPAPQHPQ [FBXO28], for which the protein stability index was 5.22 ± 0.34 (treatment: DMSO) and 5.18 ± 0.35 (treatment: MLN4924 1 uM, 8 h).

As for DHMREAGDVCYADVYRDGTGVVEF [SRSF1], the protein stability index reads like this: (treatment: DMSO) 3.15 ± 0.28; (treatment: MLN4924 1 uM, 8 h) 3.18 ± 0.23.

For the sequence DHVHILDTETFTWSQPITTGKAPS [KLHDC2], the protein stability index is 3.82 ± 0.3 (treatment: DMSO) and 3.84 ± 0.4 (treatment: MLN4924 1 uM, 8 h).

As for DIKRLLVNFMYLQSLLQPKSSSVD [SMG5], the protein stability index was 2.97 ± 0.54 (treatment: DMSO) and 3.08 ± 0.51 (treatment: MLN4924 1 uM, 8 h).

On to DITDDCICDLARSIDFNKDGHIDI [PPEF2], for which the protein stability index runs as follows: (treatment: DMSO) 3.87 ± 0.19; (treatment: MLN4924 1 uM, 8 h) 4.05 ± 0.39.

Consider DLKDDGNMMKVLRGHQNWVYSCAF [WSB1], for which the protein stability index came out at 2.3 ± 0.29 (treatment: DMSO) and 1.87 ± 0.22 (treatment: MLN4924 1 uM, 8 h).

As for DLKPENILFVNSEFETLYNEHKSC [CLK3], the protein stability index is, setting by setting: (treatment: DMSO) 3.38 ± 0.37; (treatment: MLN4924 1 uM, 8 h) 3.48 ± 0.26.

Consider DLQNLLGFTPEELHAILGVQPDTE [ETS2], for which the protein stability index was 3.25 ± 0.21 (treatment: DMSO) and 3.45 ± 0.29 (treatment: MLN4924 1 uM, 8 h).

On to DLVLDEEGARAAGLGELGAALLQL [ESRRA], for which the protein stability index runs as follows: (treatment: DMSO) 3.94 ± 0.19; (treatment: MLN4924 1 uM, 8 h) 4.05 ± 0.17.

As to DMELHRMSRMQSKEYPVVPRSTVR [TBX5], the protein stability index is, setting by setting: (treatment: DMSO) 4.35 ± 0.07; (treatment: MLN4924 1 uM, 8 h) 4.33 ± 0.15.

With DNAVKNHWNSTIKRKVDTGGFLSE [MYBL2], the protein stability index (treatment: DMSO) worked out at 3.87 ± 0.2 and the protein stability index (treatment: MLN4924 1 uM, 8 h) is 3.71 ± 0.14.

As for DNDHKEAVGKMGFVVTMLKLIQKK [ZER1], the protein stability index by setting is: (treatment: DMSO) 2.21 ± 0.37; (treatment: MLN4924 1 uM, 8 h) 2.07 ± 0.34.

In the case of DPGHCFAESRELPVRCAGDWLPRG [ALG2], the protein stability index came to 3.1 ± 0.38 (treatment: DMSO) and 3.05 ± 0.25 (treatment: MLN4924 1 uM, 8 h).

In turn, DPNSQVGACIVNSENKIVGIGYNG [DCTD] returned a protein stability index (treatment: DMSO) of 4.56 ± 0.15 and a protein stability index (treatment: MLN4924 1 uM, 8 h) of 4.56 ± 0.48.

Take DQLYRRKKDNHALVRETDELRRNH [ELOA2]: the protein stability index (treatment: DMSO) amounted to 4.53 ± 0.42 and the protein stability index (treatment: MLN4924 1 uM, 8 h) is 4.48 ± 0.43.

As to DRLASNVAKRKSSMPQKFLGDKGL [IKZF1], the protein stability index reads like this: (treatment: DMSO) 3.95 ± 0.11; (treatment: MLN4924 1 uM, 8 h) 4.05 ± 0.17.

Take DSAVENLLLLSKAKLVPSEREASP [IKZF1]: the protein stability index reads like this: (treatment: DMSO) 4.15 ± 0.23; (treatment: MLN4924 1 uM, 8 h) 4.59 ± 0.14.

In the case of DSLAKEIQYLKDLIEEVRKARGKK [ATF4], the protein stability index reads like this: (treatment: DMSO) 2.25 ± 0.31; (treatment: MLN4924 1 uM, 8 h) 2.14 ± 0.44.
